B1: OR4K15 (parent)
chain: GUUAACGGUCAUAGGCCAUGGAAACUAGGAGCACCAUUUCGCUGCCAGUGAAGAAAUGAACAAAGAAAAUCUGGGCCAGGCAGGCAUCAAAAGAAAUAGUCUUGCGCUCAACCAGAAAGUCUGUAAUCAUUUUAAGGGUA

Variants of: B1
Experiment: self-cleavage, relative activity (ratio to wild type); higher = more cleavage; in vitro, sequencing; the parent is a self-cleaving ribozyme

Variant	self-cleavage
U3A	1
G15C A68C	2.44
A55G A64G	0.88
A91G U131C	1.07
A78G G106A	0.03
A47U A111G	0.04
C113A	0.03
U9A A11G	0.92
A11U A90G	0.51
A18G G75C	0.16
A11U A60G	1.16
A92G A111G	0.02
A63G U87C	1.59
A55G A89U	1.55
A114U A134G	0.04
A4G A55G	1.13
U38A A114G	0.96
C10A A118G	1.99
A96G A111C	0.01
U2A A126G	0.81
C101A U124C	0.08
C81A A82G	0.13
U38A A140U	1.08
A24G A67U	1.32

Variant	self-cleavage
U70A A118G	0.37
C34U A36U	1.19
A36U A47U	0.69
U39G A89G	1.18
A30U A110G	0.1
U70C G104A	0.03
A96G G115A	0.07
A52U U131A	1.49
A18G G65U	1.18
C46U C85U	1.36
A36G U122C	1.25
U2C U26A	0.37
C71A A78U	0.26
G84C A114G	0.05
A110G A135G	0.12
A82G A116G	0.26
U9C C46A	1.74
G14A U127C	0.28
A98G U100C	2.04
U102C A135C	1.02
A117G U122C	1.05
A36G A68G	2.06
A56U U97C	1.16
A110U A135G	1.63

Variant	self-cleavage
G41U A55G	2.29
U3C U39C	1.15
A62G U122C	1.27
U12C A125G	0.5
A13G U39C	0.92
U38C G99C	0.34
A56G U133C	1.43
A62U U130C	0.84
A13G U38A	0.78
U43A U127C	1.07
A64G A78U	0.4
A90U U120A	1.85
A30G A64G	1.35
U72A A111U	0.01
U49C U97A	2.12
A4G A69C	0.53
A129U U132C	1.12
A89G A116G	0.7
A11U U57C	0.73
A51G G83A	1.42
U3A U103C	0.76
C107U U122A	0
U9A A52C	2.25
U9C A78C	0.38

Variant	self-cleavage
A52G U108A	0.02
A110G G137A	0.18
A52G C88A	1.78
A62G A134U	1.75
U87C U124C	0.83
U133C A140U	2.09
A5U U103C	0.83
A63G A114G	0.86
U49A A111G	0.01
U19C A140U	1.21
A47G U72A	0.09
A90G U127C	0.13
G41C A51C	0.71
U108C A129G	0.01
A92U A94G	1.76
C34U C101A	0.21
A111U U124C	0.08
A62G A117C	0.69
A59G A82U	0.34
A5C A66G	2.49
U3A A96G	1.18
G28A A52G	1.9
U3A U70C	1.14
G50A U87A	1.75

Variant	self-cleavage
A5U A68G	0.82
U3C U38C	0.98
A18G A22U	1.95
U57C U102G	0.29
C32U A94G	1.5
U57C U122C	0.84
U19C G75C	0.17
G104A A140G	0.09
U39C A54G	0.69
A51G G136A	2
G21A U122G	2.56
A59G A69G	1.26
U97C U100C	2.15
A64C A69U	2.61
A96G U124A	0.94
U43A U139C	2.42
C6U A64G	1.46
A22G U131A	1.53
A33U A90G	1.06
A30G G58A	0.67
U37A U72C	0.37
G29U A90G	1.1
U9C A90U	2.21
A4G U72A	0.22

Variant	self-cleavage
A110G A111G	0.02
A11G U131C	0.79
A55G A64U	2.41
A13G C32U	1.2
A24G A86U	1.44
C6U A89G	1.13
A92G A95G	1.46
C16U	1.25
A89U U103A	1.09
A69G U127A	1.8
A64G U87C	0.87
A24G A110G	0.17
A125G A126G	0.68
A11G A91U	1.22
C6U A66G	1.33
A94G U127C	1.04
A69G C85U	0.65
A86U U127A	2.92
A52U C101U	0.19
A64G A118G	0.89
A11U A114G	0.61
A110C U131A	0.17
U38C A86C	1.31
A52G U130A	1.08

Variant	self-cleavage
A30U A51G	1.55
A27G A82U	0.27
U19C A96G	1.8
A111C A135U	0.03
G20U U70C	0.6
A23U A117G	1.14
A86U A98G	0.37
C121A U132A	1.42
C109A A118C	0.14
U39C G136A	2.38
C35A C61U	1.59
U39A U57C	0.73
A89G A94G	1.39
A60U A82G	0.66
A114G A135U	0.15
A22G A36U	0.87
A22U A126C	1.34
A36C U87C	1.04
A5U A67G	1.6
A59G U72C	0.23
U124A U139C	1.26
A23G U124C	0.69
U3A A11G	1.03

From the RNAGym collection of RNA variant scans (doi:10.7554/elife.90254)
